We go through one substance from patent US20230348892A1.

This experiment has as its target intC-ZF1-NLS-HA. The experiment can be described thus: cell-based or functional assay.

For 3xFLAG-NLS-VP64-intN, the rec: Reconstitution of split TFs (fitted based on split inteins), model rate constant fitted to reporter data stood at 0.34 U^-1 h^-1.
